Changes are numbered by the printed parent chain.
Experiments:
Assay in all cases: SPR; PBP1B versions immobilised to the chip surface; LpoB injected from 19.5 nM to 10 μM; apparent KD by non-linear regression, at least three independent experiments
Conditions in all cases: both partners purified
PBP1B D160C/K437C = biological target: T1, PBP1B D160C/K437C (E. coli, UniProt P02919 46-844, D160C | K437C)
T1 construct: PBP1B, E. coli, residues 46-844, made by mutagenesis of pDML924; Disulphide bridge between C160 and C437 (no free thiol groups detected); reduced in the SPR assay with 2 mM TCEP; source: E. coli BL21(DE3), purified (membrane extract, HisTrap, thrombin, HiTrap SP ion exchange)
T1 sequence (looked up): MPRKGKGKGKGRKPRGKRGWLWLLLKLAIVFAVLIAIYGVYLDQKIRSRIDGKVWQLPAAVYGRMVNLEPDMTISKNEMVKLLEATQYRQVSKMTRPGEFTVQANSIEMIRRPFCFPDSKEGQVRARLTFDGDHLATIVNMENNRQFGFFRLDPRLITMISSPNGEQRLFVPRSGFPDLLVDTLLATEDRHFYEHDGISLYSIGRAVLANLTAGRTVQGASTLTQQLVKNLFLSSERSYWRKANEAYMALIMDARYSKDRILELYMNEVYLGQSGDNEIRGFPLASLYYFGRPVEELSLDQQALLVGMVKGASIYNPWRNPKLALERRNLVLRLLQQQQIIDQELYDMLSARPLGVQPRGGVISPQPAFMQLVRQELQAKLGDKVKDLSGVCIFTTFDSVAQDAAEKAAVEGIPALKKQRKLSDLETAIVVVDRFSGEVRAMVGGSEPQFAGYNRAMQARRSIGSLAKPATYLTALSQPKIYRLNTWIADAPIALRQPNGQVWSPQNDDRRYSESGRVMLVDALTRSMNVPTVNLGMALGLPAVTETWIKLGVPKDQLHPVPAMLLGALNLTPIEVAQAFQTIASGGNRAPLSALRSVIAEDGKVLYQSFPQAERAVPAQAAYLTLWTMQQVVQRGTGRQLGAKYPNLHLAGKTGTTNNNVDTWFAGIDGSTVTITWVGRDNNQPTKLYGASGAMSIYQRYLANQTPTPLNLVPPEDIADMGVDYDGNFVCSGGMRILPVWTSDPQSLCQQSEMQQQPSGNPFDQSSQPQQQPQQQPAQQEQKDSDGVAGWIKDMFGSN

PBP1B D443A = biological target: T2, PBP1B D443A (E. coli, UniProt P02919 46-844, D443A)
T2 construct: PBP1B, E. coli, residues 46-844, made by mutagenesis of pDML924; source: E. coli BL21(DE3), purified (membrane extract, HisTrap, thrombin, HiTrap SP ion exchange)
T2 sequence (looked up): T1 sequence (looked up) with C115D, C392K, D398A

PBP1B N112G = biological target: T3, PBP1B N112G (E. coli, UniProt P02919 46-844, N112G)
T3 construct: PBP1B, E. coli, residues 46-844, made by mutagenesis of pDML924; source: E. coli BL21(DE3), purified (membrane extract, HisTrap, thrombin, HiTrap SP ion exchange)
T3 sequence (looked up): T1 sequence (looked up) with N67G, C115D, C392K

B1: LpoB (natural protein, E. coli)
chain: VGQREPAPVEEVKPAPEQPAEPQQPVPTVPSVPTIPQQPGPIEHEDQTAPPAPHIRHYDWNGAMQPMVSKMLGADGVTAGSVLLVDSVNNRTNGSLNAAEATETLRNALANNGKFTLVSAQQLSMAKQQLGLSPQDSLGTRSKAIGIARNVGAHYVLYSSASGNVNAPTLQMQLMLVQTGEIIWSGKGAVSQQ
notes: LpoB, E. coli; also called lipoprotein LpoB; source: E. coli BL21(DE3), purified (HisTrap, Superdex 200), as in Egan et al. 2014
**Q.** Which results are given for B1?
**A.** Kd (PBP1B D160C/K437C): 3970 nM; Kd (PBP1B D443A): 289 nM; Kd (PBP1B N112G): 356 nM
